The source of these data is the Human Domainome abundance scans (Beltran et al. 2025).

± gives the uncertainty stated by the source.

The labels stand for the following.
B1: Far upstream element-binding protein 2, residues 142 to 214; numbered along this chain, Q92945 (parent)
chain: RTSMTEEYRVPDGMVGLIIGRGGEQINKIQQDSGCKVQISPDSGGLPERSVSLTGAPESVQKAKMMLDDIVSR

In the series the parent is B1. The experiment in a line: abundance fitness (aPCA) (normalised: wild type 0, dead -1); higher = more abundant; growth selection in yeast, the domain comes from the species named. The conditions noted are these: Homo sapiens.
Turning to RTSMTEEYRVPDGMVGLIIGRGGEQINKIQQDSGCKVQISPDSGGLPERSVDLTGAPESVQKAKMMLDDIVSR, the abundance fitness was -0.312 ± 0.067. As to RTSMTEEYRVPDGMVGLIIGRGGEQINKIQQDSGCKVQISPDSGGLPERSVQLTGAPESVQKAKMMLDDIVSR, the abundance fitness is -0.011 ± 0.055. In the case of RTSMTEEYRVPDGMVGLIIGRGGEQINKIQQDSGCKVQISPDSGGLPERSVELTGAPESVQKAKMMLDDIVSR it was 0 ± 0.048. On to RTSMTEEYRVPDGMVGLIIGRGGEQINKIQQDSGCKVQISPDSGGLPERSVWLTGAPESVQKAKMMLDDIVSR, for which the abundance fitness worked out at 0.01 ± 0.05. As for RTSMTEEYRVPDGMVGLIIGRGGEQINKIQQDSGCKVQISPDSGGLPERSHSLTGAPESVQKAKMMLDDIVSR, the abundance fitness was -1.3 ± 0.23. In the case of RTSMTEEYRVPDGMVGLIIGRGGEQINKIQQDSGCKVQISPDSGGLPERSRSLTGAPESVQKAKMMLDDIVSR, the abundance fitness is -0.944 ± 0.054. The value for RTSMTEEYRVPDGMVGLIIGRGGEQINKIQQDSGCKVQISPDSGGLPERSPSLTGAPESVQKAKMMLDDIVSR was -0.847 ± 0.08.

For RTSMTEEYRVPDGMVGLIIGRGGEQINKIQQDSGCKVQISPDSGGLPERSMSLTGAPESVQKAKMMLDDIVSR, the abundance fitness is -0.122 ± 0.065.

Turning to RTSMTEEYRVPDGMVGLIIGRGGEQINKIQQDSGCKVQISPDSGGLPERSCSLTGAPESVQKAKMMLDDIVSR, the abundance fitness was -0.189 ± 0.075. In the case of RTSMTEEYRVPDGMVGLIIGRGGEQINKIQQDSGCKVQISPDSGGLPERSLSLTGAPESVQKAKMMLDDIVSR it was 0.019 ± 0.052; in that of RTSMTEEYRVPDGMVGLIIGRGGEQINKIQQDSGCKVQISPDSGGLPERSWSLTGAPESVQKAKMMLDDIVSR, -0.487 ± 0.055; in that of RTSMTEEYRVPDGMVGLIIGRGGEQINKIQQDSGCKVQISPDSGGLPERSDSLTGAPESVQKAKMMLDDIVSR, -0.834 ± 0.083.

In the case of RTSMTEEYRVPDGMVGLIIGRGGEQINKIQQDSGCKVQISPDSGGLPERSSSLTGAPESVQKAKMMLDDIVSR, the abundance fitness is -0.837 ± 0.067.

For RTSMTEEYRVPDGMVGLIIGRGGEQINKIQQDSGCKVQISPDSGGLPERSTSLTGAPESVQKAKMMLDDIVSR, the abundance fitness is -0.704 ± 0.068.

As for RTSMTEEYRVPDGMVGLIIGRGGEQINKIQQDSGCKVQISPDSGGLPERSASLTGAPESVQKAKMMLDDIVSR, the abundance fitness was -0.503 ± 0.045.

RTSMTEEYRVPDGMVGLIIGRGGEQINKIQQDSGCKVQISPDSGGLPERSESLTGAPESVQKAKMMLDDIVSR: the abundance fitness is -0.84 ± 0.076.

Turning to RTSMTEEYRVPDGMVGLIIGRGGEQINKIQQDSGCKVQISPDSGGLPERSISLTGAPESVQKAKMMLDDIVSR, the abundance fitness worked out at 0.117 ± 0.085. In the case of RTSMTEEYRVPDGMVGLIIGRGGEQINKIQQDSGCKVQISPDSGGLPERSGSLTGAPESVQKAKMMLDDIVSR it was -0.832 ± 0.048. On to RTSMTEEYRVPDGMVGLIIGRGGEQINKIQQDSGCKVQISPDSGGLPERSQSLTGAPESVQKAKMMLDDIVSR, for which the abundance fitness was -0.947 ± 0.11. The value for RTSMTEEYRVPDGMVGLIIGRGGEQINKIQQDSGCKVQISPDSGGLPERSYSLTGAPESVQKAKMMLDDIVSR was -0.5 ± 0.1; that for RTSMTEEYRVPDGMVGLIIGRGGEQINKIQQDSGCKVQISPDSGGLPERSFSLTGAPESVQKAKMMLDDIVSR was -0.089 ± 0.088; that for RTSMTEEYRVPDGMVGLIIGRGGEQINKIQQDSGCKVQISPDSGGLPERSVSYTGAPESVQKAKMMLDDIVSR was -1.04 ± 0.23.

In the case of RTSMTEEYRVPDGMVGLIIGRGGEQINKIQQDSGCKVQISPDSGGLPERSVSDTGAPESVQKAKMMLDDIVSR, the abundance fitness is -0.72 ± 0.1. Regarding RTSMTEEYRVPDGMVGLIIGRGGEQINKIQQDSGCKVQISPDSGGLPERSVSKTGAPESVQKAKMMLDDIVSR, the abundance fitness was -1 ± 0.098. In the case of RTSMTEEYRVPDGMVGLIIGRGGEQINKIQQDSGCKVQISPDSGGLPERSVSFTGAPESVQKAKMMLDDIVSR it was -0.491 ± 0.11; in that of RTSMTEEYRVPDGMVGLIIGRGGEQINKIQQDSGCKVQISPDSGGLPERSVSQTGAPESVQKAKMMLDDIVSR, -0.784 ± 0.083; in that of RTSMTEEYRVPDGMVGLIIGRGGEQINKIQQDSGCKVQISPDSGGLPERSVSETGAPESVQKAKMMLDDIVSR, -0.869 ± 0.063. Regarding RTSMTEEYRVPDGMVGLIIGRGGEQINKIQQDSGCKVQISPDSGGLPERSVSPTGAPESVQKAKMMLDDIVSR, the abundance fitness was -0.998 ± 0.076. RTSMTEEYRVPDGMVGLIIGRGGEQINKIQQDSGCKVQISPDSGGLPERSVSRTGAPESVQKAKMMLDDIVSR: the abundance fitness was -0.854 ± 0.048.

As to RTSMTEEYRVPDGMVGLIIGRGGEQINKIQQDSGCKVQISPDSGGLPERSVSSTGAPESVQKAKMMLDDIVSR, the abundance fitness is -0.754 ± 0.061. For the variant RTSMTEEYRVPDGMVGLIIGRGGEQINKIQQDSGCKVQISPDSGGLPERSVSITGAPESVQKAKMMLDDIVSR, the abundance fitness is -0.09 ± 0.11. Turning to RTSMTEEYRVPDGMVGLIIGRGGEQINKIQQDSGCKVQISPDSGGLPERSVSWTGAPESVQKAKMMLDDIVSR, the abundance fitness is -0.994 ± 0.08. On to RTSMTEEYRVPDGMVGLIIGRGGEQINKIQQDSGCKVQISPDSGGLPERSVSHTGAPESVQKAKMMLDDIVSR, for which the abundance fitness was -0.733 ± 0.12. In the case of RTSMTEEYRVPDGMVGLIIGRGGEQINKIQQDSGCKVQISPDSGGLPERSVSTTGAPESVQKAKMMLDDIVSR, the abundance fitness was -0.648 ± 0.062.

For RTSMTEEYRVPDGMVGLIIGRGGEQINKIQQDSGCKVQISPDSGGLPERSVSCTGAPESVQKAKMMLDDIVSR, the abundance fitness is -0.379 ± 0.082. The value for RTSMTEEYRVPDGMVGLIIGRGGEQINKIQQDSGCKVQISPDSGGLPERSVSVTGAPESVQKAKMMLDDIVSR was -0.369 ± 0.047; that for RTSMTEEYRVPDGMVGLIIGRGGEQINKIQQDSGCKVQISPDSGGLPERSVSNTGAPESVQKAKMMLDDIVSR was -0.634 ± 0.18. In the case of RTSMTEEYRVPDGMVGLIIGRGGEQINKIQQDSGCKVQISPDSGGLPERSVSATGAPESVQKAKMMLDDIVSR it was -0.817 ± 0.056.
